Data taken from publication PMC5925078.

How the values were obtained:
[1] = target: TNFR2 variant in which the intracellular binding site for TRAF2 has been substituted by YFP, P20333; assay: cellular binding study with GpL (luciferase) fusion protein; competition; HEK293 cells transiently expressing TNFR1 or TNFR2 (YFP deletion mutants); preincubation with purified sTNF or PGRN at 37°C; 10-20 ng/ml GpL-TNF; EV-transfected cells as non-specific binding
[2] = target: cytosolic deletion mutant of TNFR1 in which the death domain has been replaced by YFP, P19438; assay: as above

B1: GpL-Flag-TNC-TNF (ligand)
chain: ACGCAAAPDIKDLLSRLEELEGLVSSLREQSDKPVAHVVANPQAEGQLQWLNRRANALLANGVELRDNQLVVPSEGLYLIYSQVLFKGQGCPSTHVLLTHTISRIAVSYQTKVNLLSAIKSPCQRETPEGAEAKPWYEPIYLGGVFQLEKGDRLSAEINRPDYLDFAESGQVYFGIIAL
- specific binding of 20 ng/ml GpL-TNF, fold over the unspecific background (the pair that is blocked) [1]: > 2400 fold
- specific binding of 20 ng/ml GpL-TNF, fold over the unspecific background (the pair that is blocked) [2]: > 800 fold
